Data reported in publication PMC1097722.

Target: Gal4-16.4.1 fusion protein (pBIND-16.4.1) (human)
Assay: two-hybrid

Substance | fold induction of luciferase activity [fold] | other [fold]
VP16-Rev fusion protein (pACT-Rev) (from UniProt P04618 1-116) (natural protein) | 11 | –
VP16-hCRM1 fusion protein (pACT-hCRM1) (from UniProt O14980 1-1071) (natural protein) | – | 41
